# Experimental data taken from the supplement of paper PMC12764529.
# ± gives the half width of the 95% confidence interval.
# Experiment: folding stability dG unfold from trypsin proteolysis; higher = more stable
# How it was run: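 Only designs with AlphaFold2 dimer inter-PAE above 15 were retained; each was a mini-protein under 80 residues with no cysteine, in a PA-tagged cDNA display construct. After digestion with trypsin and chymotrypsin and sequencing, K50 was inferred by Bayesian fitting of counts, and unfolding free energy was derived per protease or combined against a sequence-predicted unfolded-state K50 and a shared folded-state K50.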
row,Sequence,folding stability dG unfold
1,SAGGSAGGSAGKKYKVVEVKENKDGTVELVVENENGEKKKITLSKEELDKLKAGDTVELKSAGGSAGGSAGG [r11_943_TrROS_Hall],8.42 ± 0.46 kJ/mol
2,SAGGSAPPNLQIDIQINPGHGYIEVSVQIPGRHVKASAKLTEPGQLKMDIEFPGNGKEIDITIPISSAGGSA [r15_837_TrROS],8.53 ± 0.586 kJ/mol
3,SAGGSAGGSAGGPKVEVLEVFEFGDLRFVKVYDPETGKVTLLAVTRSDGSKVTFFNPEESAGGSAGGSAGGS [r10_655_TrMRF],5.93 ± 0.234 kJ/mol
4,SAGGKPKEIVIEVELEVVEVNGEKYLVLKAKIIDKETNEVYEVTAVFNLKTGKLVGIEVKKLTVEELKSAGG [r13_772_TrROS_Hall],13.2 ± 1.05 kJ/mol
5,SAETVVTPRRSTLPDGTRLEEDVVTLPDGTTVTPVRVVRRDPETGREVVEFWVRTTDPATGTTTTTPLPSAG [r14_324_JUSTAS],-0.83 ± 0.502 kJ/mol
6,SHMVTVTIYKNGVKVKETEIPLEEVEKMPEEEIIEFAAEIAKKNPGVNYTFTITRPSGPSTVSIDGPEKLKS [r1_477_JUSTAS],3.19 ± 0.502 kJ/mol
7,SGPFQFFVKIEYKGKNGKTQERELPINMPPGDFDKFIEEILDDPNLEGADDVEIDVYMAGTGRPQEIEIPSA [r9_97_TrROS],2.84 ± 0.255 kJ/mol
8,SAGGSALVIKKVEPNKGYLVFESKEDDKPIVRVKLETLVAALEEDRIPPALRRLLAENPDQVFNPVSAGGSA [r15_359_TrMRF],9.31 ± 0.502 kJ/mol
9,SAKLTLEIEVNGKKYKAEITSVDEETGTVTIKVTFPDGSTQTLTLTFPPAPPPKVEKVYVVDKDGKLLKSAG [r14_466_TrROS_Hall],2.69 ± 0.105 kJ/mol
10,SAGGSAGGEKVEKKEVKVELKIVIVVSEELREMSEEELEELLKELAAKLPGVKEVKIEILPLPESAGGSAGG [r6_710_TrROS_Hall],4.35 ± 0.544 kJ/mol
11,SAGMIEINNVTPNYVMIKIWNPDNGKKWEIPIQYERDNGKPYSKDKALEEIKDIAKEFYPDFDIEVEPVSAG [r5_293_TrROS],0.113 ± 0.628 kJ/mol
12,SAGGSAGGSAGGSKELTVLVVEKNEDGTLTVRKFKIELKDGELKIVEEEEKTVPLEELKSAGGSAGGSAGGS [r4_389_TrROS_Hall],5.92 ± 0.31 kJ/mol
13,SDDIKNMPFRITEIEPLPPGDPIPPGQRIRITIQMPDFPGQPFEFDIRVDPENGMIYMEMGGMPFEIPIKSA [r9_243_TrROS],6.71 ± 0.0795 kJ/mol
14,SAGGEWRKITVPIKYRFPPGESIDSIANELANLPGLKVEVNVEYEKDPDGRYYMEIPVEIEIPPGAPISAGG [r13_590_TrROS],1.43 ± 0.31 kJ/mol
15,SAGMMKVRIKIEVTRVEYDEETGELKEETRTIEIPIEAESEEEAEELAKKLAEELPEEEVKIVEIEPLSAGG [r19_209_TrROS_Hall],4.62 ± 0.402 kJ/mol
16,SAGGSAGGSAGIEIHVMEDPDGRWWLMITIKVKYKVRNPEDGDPIFEFEVTYTIMIWLKASAGGSAGGSAGG [r17_124_TrROS],18 ± 1 kJ/mol

row,Sequence,folding stability dG unfold
1,SGSLSIEFSSTEPSSPGSITLSKLFPEPEADRATHTIKLPNSTIELEFDSAEDLIKNVEKLLKELGNPGKSA [r9_258_JUSTAS],1.24 ± 0.243 kJ/mol
2,SAGGSAMKVYKIKLEFENEETGKRVEIEAEVVEVDGELYLVMKAKVVDEETGEEKEIEIVIKLPKESAGGSA [r15_960_TrROS_Hall],10.4 ± 0.879 kJ/mol
3,SAGGSAGGSAYELVIVGTPELALKLAKEFAEKNPESVANLKIEKITAALPVPFLSPDGIPESAGGSAGGSAG [r3_89_TrMRF],0.396 ± 0.418 kJ/mol
4,SAGGGSSSTTTSTTTTTSTSIEPLPGDREVVVTTTTTTTTTTTTTTPPDGSSTSTTTTTTTTTTTVTLASAG [r5_428_JUSTAS],10.8 ± 0.962 kJ/mol
5,SAGGSAGGPEIEVRFPDGWYVKITVERPEDGKVTVKVEVYHPDPNGKPIPPETAKNLAKEFLNKSAGGSAGG [r6_235_TrROS],3.95 ± 0.314 kJ/mol
6,SAGGSAGGSPAPDVTIEVKVTYDPETGALRIEVEATIPGGGKITIEYTIPPLDKIEIVGVKIESAGGSAGGS [r12_1029_TrMRF],11 ± 0.628 kJ/mol
7,SAGGSAGGSAGVKVLKNPGDSLVTVVTETTVTKTTTDPEGNTTTTPVKVTTTTLLEVPLTSAGGSAGGSAGG [r17_103_JUSTAS],0.857 ± 0.138 kJ/mol
8,SPYFMFPIDDIKVEKERDPDDGKKTYEMRVEGPNGNPFRIEFNPKDGMIHIEFPPGMKLRPGDTFELTIRSA [r9_509_TrROS],8.75 ± 0.368 kJ/mol
9,SAGGSAGGSAMKVRVKIKITRGSKEYEEEFILPEEEIEKLKEEIPEDYEVEIVDKEPLVLKSAGGSAGGSAG [r3_195_JUSTAS],0.539 ± 0.669 kJ/mol
10,SAGGKTVVLEFDSVEDLKAALPPGAEVEIVVIREDGSKKTITVPAKDLKLELKPGEKYRVVIKVKPKKSAGG [r13_461_TrROS_Hall],6.27 ± 0.377 kJ/mol
11,SAGGSKIIITYDKEKNVITIKVEKNGKLLEITIEVKSKEDLEEALKKAEELAKELEKKGYKVEIIPSAGGSA [r2_118_TrROS_Hall],8.15 ± 0.502 kJ/mol
12,SAGGSAGGKKIKIEIIYDKENNKLYIYVVDENTKKVYRYEFNKNGKLIKVEPVKEVKPGEVIPLSAGGSAGG [r6_148_TrROS_Hall],8.22 ± 0.628 kJ/mol
13,SAGGSAGGSAMKYYVTITFTDPNNGNTTTEIKEVTTEEEVEKVVEELAPSSYASVKVSIKPKSAGGSAGGSA [r18_258_JUSTAS],1.27 ± 0.247 kJ/mol
14,SAGGSAGGSAGGGWAEIEIKITIFVFDPGNMTLFMVTLEPRIEVPPVKRDPDNGKWKPDSAGGSAGGSAGGS [r10_815_TrROS],12 ± 0.962 kJ/mol
15,SAGGYKYKREKYRDPENGQPRERYKREPPPPPPPSISININAPPEMADKIADILQDLLPNMPVGINGSAGGS [r8_437_TrROS],10.2 ± 0.368 kJ/mol
